Reference: the nanobody polyreactivity screen of Harvey et al. (2022)

Assay: yeast display, Sf9 membrane polyspecificity reagent, FACS + sequencing; frameworks hold sequencing errors
Outline: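 Galactose induction of a Saccharomyces cerevisiae BJ5465 synthetic nanobody display library ran 36–48 hours. The cells were then stained for 1 hour at 4 °C with 10% biotinylated, detergent-solubilized Sf9 membrane reagent, pulled down on streptavidin microbeads and FACS-sorted into low and high (top ~1%) gates on expression and reagent-binding fluorescence. Labels for polyreactivity follow the gate of origin.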

Sequence | polyreactivity (PSR sort gate)
QVQLVESGGGLVQAGGSLRLSCAAAGSIFSYYAMGWSRPEPGKEREFVATIRRSGASTYYADSVKGRFTISRDNAKNTGYLQMNSLKPEDTAVYYCNAASARRPIYEAARGSKYDYWGQRTQVTVSS | low polyreactivity
QVQHVDSGGRLVQAGGRLRLSCAASGRIITYYARGWNRQAPGKERELVAAISGRGGGTYYADSVKGRFTISRDNAKNTVYLQMNSLKPADTAVYYCNAYYSRLRYDYWGQGTQVTVSS | high polyreactivity
QVQLVESGGGLVQAGGSLRLSCAASGSIFFVYDMGWYRQAPGKERELVAGIRWSGGRTSYADSVKGRFTISRDNAKNTVYLQMNRLKPEDAAVYYCAADPRSYFTSEYWGQGTQVTVSS | high polyreactivity
QVQLVESGGGLVQAGGSLRLSCADSGITFFTYAMGRYRQAPGKERELVAAISGSGGSTYYADYVKWRFTISRDNAKNTVYLQMNSLKPEDTEVYYCAAEYTYGSPYDYWGQGTQVTVSS | low polyreactivity
QVQLVESGGGLVQAGGSLRLSCAASGIIFAYYAMGWYRQAPGKERELVAAIDYSGASTYYADSVKGRFTISRDNAKNTVYLQMNSLKPEDTAVYYCAKYQYDYYTYDYWGQGTQVTVSS | low polyreactivity
QVQLVESGGGLVQAGGSLRLSCAASGLTFKRNAMGWYRQAPGKERELVAAIRYSTDSTNYADSVKGRFTISRDNAMYTVYLQMNSLKPEDTAVYYCAKDKQDYEYWGQGTQVTVSS | low polyreactivity
QVQLVESGGGLVQAGGSRSLSCAASGSILWYYAMGWYRQAPGKERELVADITARGVGTYYADSVKGRFTISRDNAKNTVYLQMNSLKPEDTAVYYCNVETYSFYTLYVTYDYWGQGTQVTVSS | low polyreactivity
QVQLVESGGGLVQAGGSLRLSCAASGSLFRINAMGWYRQAPGKERELVAAITGRVGSTYYADTVKGRFTISRDNAQNTVYLQMNSLKPEDTAVYYCAARAGSSRYTREYRYDYWGQGTQVTVSS | high polyreactivity
QVQLVESGGGLVQAGGSLRLSCAASGFTFRIYTMGWYRQAPGKERELVAAISSRGGSTYYADSVKGRFTISRDNAKNTVDLQMNSLKPEDTAVYYCAASGRVYSSGYDYWGQGTQVTVSS | high polyreactivity
QVKLVESGGGLVQAGGSLRLSCAASGFIFSKNAMGWYRQAPGKERELVAAISGRGGTTYYADSVKGRFTISRDNAKNTVYLQMNSLIPEDTAVYYCATDNSSHPYDYWGQGTQVTVSS | high polyreactivity
QVQLVESGGGLVQAGGSLRLSCAASGIIFDCNSMGWYRQAPGKERELVAANTSSTDSTYYADSVKGRFTISRDNAKNTVYLQLNSLKPEDTAVYYCAAAYPSKTFDYWGQGTQVTESS | low polyreactivity
QVQLVESGGGLVQAGGSLRLSFAASGSTFKRYLMGWYRQAPGKERELVAAISSRGGSTYYADSVKGRFTISRDYANNTVYLQMISLKPEYTAVFYCATANVRAEDYWGQGTQVTVSS | high polyreactivity
QVQLVESGGGLVQAGGSLRLSCAASGSIFEYNDMGWYRQAPGKEREMVSAISWNGGSTYYADSVKGRFTISRDNAKNTVYLQMNSLKPEDTAVYYCAADGDPLWVASEYDSWGQGTQVTVSS | low polyreactivity
QVQLVESGGGLVQAGGSLRLSCAASGITINFYAMGWYRQAPGKERELVAAITQSGGSTYYADSVKGRFTISRDNAKNTVYLQMNRLKPEDTAVYYCAAARTGHMYYWGQGTQVTVSS | high polyreactivity
QVQLVESWGGLVQAGGSLSLSCAASGSIFAANAMGWYRQAPGKERELVAAISWSGGSTYADSVKRRFTISRDNEKNTVYLQRNSLKPEDTAVYYCAADLCSQYKFGYCGQGTQVTVSS | low polyreactivity
QVQLVESGGGLVQAGGSLRLSCAASGNTFYPNAMGWYRQAPGKERELVAAITTSGGTTYYADSVKGRFTISRDNAKNTVYLQMNSLKPEDTAVYYCAAYWSRDKYDYWGQGTQVTVSS | low polyreactivity
QVQLVESGGGLVQAGGSLRLSCAASGYIFGTYGMGWYRQAPGKERELVAGISRSGTSTYYADSVKGRFTISRDNAKNTVYLQMNSLKPEDTAVYYCAAVSRTRYEYWGQGTQVTVSS | high polyreactivity
